Laboratory results published in patent US20180134794A1.
Like-named read-outs stand apart in the source and are kept apart here.

Columns and labels:
[1] = target: human MET (c-Met, HGFR) endogenously expressed on cell lines (human) (UniProt P08581)
[2] = target: human MET (c-Met, HGFR) endogenously expressed on cell lines (human) (UniProt P08581); remark: listed apart in the source

Sequence of human MET (c-Met, HGFR) endogenously expressed on cell lines (human) (P08581 25-1390): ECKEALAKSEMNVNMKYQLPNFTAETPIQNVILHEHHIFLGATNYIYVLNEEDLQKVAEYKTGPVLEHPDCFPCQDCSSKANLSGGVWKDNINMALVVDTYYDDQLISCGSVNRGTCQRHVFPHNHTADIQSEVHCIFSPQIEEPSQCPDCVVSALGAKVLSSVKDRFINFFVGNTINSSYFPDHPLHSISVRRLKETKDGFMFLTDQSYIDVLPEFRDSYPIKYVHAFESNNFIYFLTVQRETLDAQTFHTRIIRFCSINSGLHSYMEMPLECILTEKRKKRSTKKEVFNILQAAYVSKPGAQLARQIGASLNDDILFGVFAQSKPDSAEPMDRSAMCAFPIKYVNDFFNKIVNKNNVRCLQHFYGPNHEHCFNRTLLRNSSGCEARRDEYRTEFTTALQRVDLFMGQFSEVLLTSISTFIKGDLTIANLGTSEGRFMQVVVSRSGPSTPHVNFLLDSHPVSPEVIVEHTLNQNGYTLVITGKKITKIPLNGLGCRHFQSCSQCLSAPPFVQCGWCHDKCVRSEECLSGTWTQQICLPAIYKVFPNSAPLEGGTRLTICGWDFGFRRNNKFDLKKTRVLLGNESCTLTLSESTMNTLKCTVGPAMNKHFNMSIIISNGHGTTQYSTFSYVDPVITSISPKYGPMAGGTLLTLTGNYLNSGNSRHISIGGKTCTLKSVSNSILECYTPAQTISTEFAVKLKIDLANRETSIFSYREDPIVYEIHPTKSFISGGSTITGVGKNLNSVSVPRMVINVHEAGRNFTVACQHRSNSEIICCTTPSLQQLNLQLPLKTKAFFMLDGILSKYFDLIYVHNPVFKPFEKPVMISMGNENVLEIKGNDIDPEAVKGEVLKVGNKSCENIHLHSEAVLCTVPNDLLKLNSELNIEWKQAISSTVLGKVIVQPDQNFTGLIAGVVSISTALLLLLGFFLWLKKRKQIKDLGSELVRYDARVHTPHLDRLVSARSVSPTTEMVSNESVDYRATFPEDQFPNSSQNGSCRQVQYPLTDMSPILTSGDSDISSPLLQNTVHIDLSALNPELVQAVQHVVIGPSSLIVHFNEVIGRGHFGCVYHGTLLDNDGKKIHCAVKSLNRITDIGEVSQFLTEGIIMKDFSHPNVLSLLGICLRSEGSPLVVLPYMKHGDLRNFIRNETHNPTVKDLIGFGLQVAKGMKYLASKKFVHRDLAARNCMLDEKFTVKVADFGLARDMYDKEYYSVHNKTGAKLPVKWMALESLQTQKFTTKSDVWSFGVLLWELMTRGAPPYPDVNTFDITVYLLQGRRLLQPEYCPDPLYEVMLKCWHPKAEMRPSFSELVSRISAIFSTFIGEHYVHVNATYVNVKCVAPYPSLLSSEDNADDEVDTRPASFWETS

IC50 (read off the curve), inhibition of HGF-induced SRE-luciferase signal [1]: 0.06 nM
IC50 (read off the curve), inhibition of HGF-induced SRE-luciferase signal [2]: 0.4 nM
Substance: monovalent anti-MET antibody (heavy and light chain variable sequences of MetMab)
